Measurements as given in patent US6657045 (NEW ENGLAND MEDICAL CENTER HOSPITALS, dated 2003).

How the values were obtained:
[1] = target: T1, Glycine max agglutinin (Glycine max, UniProt P05046 33-285, biotinylated); experiment: biotinylated lectin blot of shed proteins
T1 construct: Lectin; also called SBA
Excerpt: (§1) In order to determine the nature of the carbohydrates present, SP were probed with a panel of biotinylated lectins of varying sugar specificity (Table 1).

[2] = target: T2, Ulex europeus agglutinin-1 (Ulex europeus, UniProt P22972 1-243, biotinylated); experiment: biotinylated lectin blot of shed proteins
T2 construct: Lectin; also called UEA-1
T2 sequence: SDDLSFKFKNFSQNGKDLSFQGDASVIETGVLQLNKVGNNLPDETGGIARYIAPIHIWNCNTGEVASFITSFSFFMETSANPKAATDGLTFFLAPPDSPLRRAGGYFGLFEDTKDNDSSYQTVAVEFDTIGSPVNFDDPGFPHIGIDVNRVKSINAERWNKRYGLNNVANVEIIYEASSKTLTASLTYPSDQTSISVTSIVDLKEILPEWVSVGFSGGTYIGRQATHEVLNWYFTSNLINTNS
Excerpt: as §1

T1 sequence (P05046 33-285 limits assumed): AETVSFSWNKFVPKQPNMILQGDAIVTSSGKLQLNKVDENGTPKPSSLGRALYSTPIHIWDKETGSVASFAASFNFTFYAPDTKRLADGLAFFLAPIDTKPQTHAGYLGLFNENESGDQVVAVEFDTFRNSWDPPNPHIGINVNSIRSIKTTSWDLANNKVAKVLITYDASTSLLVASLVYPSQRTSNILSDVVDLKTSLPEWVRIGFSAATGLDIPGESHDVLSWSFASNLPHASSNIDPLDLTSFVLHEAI

B1: gp40 (native 40 kDa glycoprotein of Cryptosporidium parvum) (other)
chain: DVPVEGSSSSSSSSSSSSSSSSSSSTSTVAPANKARTGEDAEGSQDSSGTEASGSQGSEEEGSEDDGQTSAASQPTTPAQSEGATTETIEATPKEECGTSFVMWFGEGTPAATLKCGAYTIVYAPIKDQTDPAPRYISGEVTSVTFEKSDNTVKIKVNGQDFSTLSANSSSPTENGGSAGQASSRSRRSLSE
modifications: native glycoprotein: O-linked glycans with terminal α-linked GalNAc on Ser/Thr
notes: Native protein from oocysts, sporozoites, shed proteins or HPA-purified lysate; also called 40,000 Mr peptide; 40 kDa band
binding result [1]: binds | binding result [2]: binds
